# Source: patent US20220089741A1 (HUABO BIOPHARM SHANGHAI, published 2022)
# Tests used:
# [1] = target: human PD-L1 protein (hybridoma screening) (human, UniProt Q9NZQ7 19-239, limits assumed); assay: SPR, hybridoma monoclone
# rhPD-L1-his protein = target: T1, rhPD-L1-his protein (monkey, UniProt G7PSE7 19-238); assay: ELISA, rhPD-L1-his coated
# T1 construct: Bought protein; also called monkey PD-L1 protein; Sino Biological #90251-C08H; not shown: C-terminal His tag
# huPD-L1-his protein [2] = target: T2, huPD-L1-his protein (human, UniProt Q9NZQ7 19-239); assay: ELISA, huPD-L1-his coated at 1 ug/ml
# T2 construct: Bought protein; also called human PD-L1-His protein; human PD-L1 protein; not shown: His tag
# T2 sequence (Q9NZQ7 19-239 limits assumed): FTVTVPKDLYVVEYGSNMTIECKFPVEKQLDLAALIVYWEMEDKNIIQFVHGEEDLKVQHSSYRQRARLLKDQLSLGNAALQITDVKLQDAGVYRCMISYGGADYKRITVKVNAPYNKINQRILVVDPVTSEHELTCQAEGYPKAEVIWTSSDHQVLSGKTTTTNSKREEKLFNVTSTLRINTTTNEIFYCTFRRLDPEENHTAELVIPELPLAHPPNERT
# Procedure: Specifically, 1 ug/ml huPD-L1-his protein (purchased from Sino Biological, #10084-H08H) was added to the ELISA plate at 50 ul/well, and coated at 2-8° C. for more than 12 hours. The raffinate of plate coating was discarded, 200 ul of 3% milk was added to each well, and blocked at room temperature for 1 hour. PBST not less than 200 uL was added to each well for washing once. The antibody sample to be tested was diluted to 100 ug/ml, then diluted 5 times for 11 gradients, and added to the ELISA plate at 100 uL/well. After incubation at room temperature for 1 hour, PBST no less than 200 uL was added to each well. After washing for 4 times, HRP-conjugated Rabbit Anti-Human IgG Fc Antibody (Luoyang Baiaotong Experimental Material Center, #C030222) diluted 25000 times with 3% milk-PBST was added as 100 uL/well. After incubating at room temperature for 1 hour, PBST not less than 200 uL was added to each well, washed 6 times and beat dry. 100 uL of TMB Substrate was added to each well. After 5 minutes of reaction at room temperature, 50 uL/well of 2M H2504 was added to terminate the reaction. The ELISA plate with stopped reaction was placed on the microplate reader, and the absorbance of OD450 value was read at 450 nm wavelength.
# huPD-L1-moFc = target: T3, huPD-L1-moFc (human, UniProt Q9NZQ7 19-238, limits assumed); assay: flow cytometry competition: blocking of huPD-L1-moFc binding to cells expressing human PD-1
# T3 construct: also called 800023, Huabo Bio; not shown: mouse Fc
# T3 sequence (Q9NZQ7 19-238 limits assumed): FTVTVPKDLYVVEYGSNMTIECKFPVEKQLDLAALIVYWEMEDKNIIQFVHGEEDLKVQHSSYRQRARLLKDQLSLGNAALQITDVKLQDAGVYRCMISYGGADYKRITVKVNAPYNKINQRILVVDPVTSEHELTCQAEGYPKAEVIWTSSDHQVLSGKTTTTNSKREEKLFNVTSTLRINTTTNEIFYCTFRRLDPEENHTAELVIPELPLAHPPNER
# Procedure: The suspension of cells (3C2-huPD-1-6F4, Huabo Bio) expressing human PD-1 in the logarithmic growth phase was centrifuged (1000 rpm×5 min) to discard the culture medium, and the cells were resuspended with 1% BSA/PBS to a living cell density of 1×10⁶/ml. […] The reacted 96-well U-shaped plate was resuspended with 1% BSA/PBS, centrifuged (300 g×3 min) to discard the supernatant, and washed like this for twice. […] The reacted 96-well U-shaped plate was resuspended with 1% BSA/PBS, centrifuged (300 g×3 min) to discard the supernatant, and washed like this for three times. Finally, the plate was resuspended with 100 uL of 1% BSA/PBS for each well and the fluorescence intensity of the first channel was detected by flow cytometry (BD, #Accuri C6).
# huPD-L1-his protein [3] = target: T2, huPD-L1-his protein; assay: SPR (Biacore 8K), antibody captured on anti-human capture CM5 chip, huPD-L1 as analyte, 1:1 model
# Procedure: In this experiment, SPR method was used to determine antibody-antigen binding kinetics and affinity.
# Anti-Human Capture-CM5 chip (GE, #BR-1005-30) was prepared according to the coupling method of Human Antibody Captrue Kit (GE, #BR-1008-39) and Amino Coupling Kit (GE, BR-1000-50). The chip was balanced at room temperature for 20-30 min, and loaded into a Biacore 8K instrument. B5D1 was diluted to the experimental working concentration with equilibration buffer. The antigen was diluted to 50 nM with equilibration buffer, then diluted 3 times for 7 concentration gradients, and 2 zero concentrations (i.e. equilibration buffer) and 1 repeated concentration (generally is a repeat of lowest concentration) were set. In the order of antibody, antigen huPD-L1 (Sino Biological, #10084-H08H), and regeneration, 10 antigen concentrations (2 zero concentrations, 7 gradient concentrations, and 1 repeat concentration) were cyclically subjected to experimental analysis. The antigen injection flow rate was 30 uL/min, the binding time was 120 seconds, and the dissociation time was 600 seconds.
# T1 sequence (G7PSE7 entry or part of it limits assumed): as the sequence (Q9NZQ7 19-238 limits assumed) above, with A33T, A34S, S62N, R68Q, Q82R, F173L, T185A, T192I, H215L counted along it
# human PD-L1 protein (hybridoma screening), sequence (Q9NZQ7 19-239 limits assumed): as the sequence (Q9NZQ7 19-239 limits assumed) above
Kd [1] [nM],EC50 (rhPD-L1-his protein) [µg/mL],EC50 (huPD-L1-his protein [2]) [µg/mL],IC50 (huPD-L1-moFc) [µg/mL],Kd (huPD-L1-his protein [3]) [nM],koff (huPD-L1-his protein [3]) [s⁻¹],kon (huPD-L1-his protein [3]) [M⁻¹ s⁻¹],Binder
2.74,,,,,,,"36C06-D8 (antibody, V domains shown, also called hybridoma 36C06/D8; mouse monoclonal antibody against human PD-L1) VH: QVQLQQSGAELVKPGASVKLSCKASGYAFTGYTIHWVKQRSGLGLEWLGWFYPGSGTLKYNEKFKDKATLTADKSSSTVYLELSRLTSEDSAVYFCARHGTGTLMAMDYWGQGTSVTVSS VL: DVVVTQTPLSLPVSFGDQVSISCRSSQSLANSYGNTYLSWYLHKPGQSPQLLIYGISNRFSGVPDRFSGSGSGTDFTLKISTIKPEDLGMYYCLQGTHQPPTFGGGTKLEIK"
,0.14,0.0433,0.00199,1.34,0.000312,233000,"chimeric antibody 900289 (antibody, V domains shown, Expressed in CHO-S cells; also called chimeric IgG1-kappa antibody; human-mouse chimeric antibody) VH: QVQLQQSGAELVKPGASVKLSCKASGYAFTGYTIHWVKQRSGLGLEWLGWFYPGSGTLKYNEKFKDKATLTADKSSSTVYLELSRLTSEDSAVYFCARHGTGTLMAMDYWGQGTSVTVSS VL: DVVVTQTPLSLPVSFGDQVSISCRSSQSLANSYGNTYLSWYLHKPGQSPQLLIYGISNRFSGVPDRFSGSGSGTDFTLKISTIKPEDLGMYYCLQGTHQPPTFGGGTKLEIK"
,0.115,0.0485,0.00242,0.94,0.000219,233000,"humanized antibody 900339 (antibody, V domains shown, Humanized from the chimeric antibody; Expressed in CHO-S cells; also called humanized PD-L1 monoclonal antibody) VH: QVQLVQSGAEVKKPGASVKVSCKASGYAFTGYTIHWVRQAPGQRLEWMGWFYPGSGTLKYSEKFQGRVTITRDKSLSTAYMELSSLRSEDTAVYYCARHGTGTLMAMDYWGQGTLVTVSS VL: DVVMTQTPLSLSVTPGQPASISCKSSQSLANSYGNTYLSWYLHKPGQSPQLLIYGISNRFSGVPDRFSGSGSGTDFTLKISRVEAEDVGVYYCLQGTHQPPTFGQGTKLEIK"
